Reference: patent US20260242419A1, “A CYCLIC PEPTIDE FOR TRAPPING INTERLEUKIN-1 BETA” (Merck Sharp & Dohme LLC, priority 2023, published 2026)
Starred links: 1 amine or outer side, 2 acyl side, 3 side chain; linkers in the order of their positions; H or OH if unused. Non-standard residues stand in square brackets, D forms with d. Trp4Az = (2S)-2-amino-3-(1H-pyrrolo[3,2-b]pyridin-3-yl)propanoic acid, O=C([C@H](Cc1c[nH]c2cccnc12)N[*:1])[*:2]; Trp(4-Cl)(βS-Me) = C[C@@H](c1c[nH]c2cccc(Cl)c12)[C@H](N)C(=O)O; dPro(4R-(4-pyridylmethyl)) = O=C(O)[C@H]1C[C@@H](Cc2ccncc2)CN1; Ala(piperidin-4-yl) = O=C([C@H](CC1CCN([*:3])CC1)N[*:1])[*:2]; dPro(3S-(4-Br-benzyl)) = O=C(O)[C@@H]1NCC[C@@H]1Cc1ccc(Br)cc1; Trp(βS-Me,4-F) = C[C@@H](c1c[nH]c2cccc(F)c12)[C@H](N)C(=O)O; Bip(4'-COOH) = N[C@@H](Cc1ccc(-c2ccc(C(=O)O)cc2)cc1)C(=O)O; Ala(1-bicyclo(1.1.1)pentyl) = N[C@@H](CC12CC(C1)C2)C(=O)O; dPro(4R-Bzl(4-F)) = O=C(O)[C@H]1C[C@@H](Cc2ccc(F)cc2)CN1; 1Nal(3S-Me) = C[C@@H](c1cccc2ccccc12)[C@H](N)C(=O)O; Ala(morpholin-4-yl) = N[C@@H](CN1CCOCC1)C(=O)O; Ala(piperazin-1-yl) = N[C@@H](CN1CCNCC1)C(=O)O; Ala(pyrimidin-5-yl) = N[C@@H](Cc1cncnc1)C(=O)O; Phe(4-COOH) = N[C@@H](Cc1ccc(C(=O)O)cc1)C(=O)O; Pro(cis-4-F) = O=C(O)[C@@H]1C[C@H](F)CN1; cisHyp = O=C(O)[C@@H]1C[C@H](O)CN1; d(αMeD) = C[C@@](N)(CC(=O)O)C(=O)O; 4Pal = N[C@@H](Cc1ccncc1)C(=O)O; d(αMeS) = C[C@@](N)(CO)C(=O)O; Cba = N[C@@H](CC1CCC1)C(=O)O; αMeK = C[C@](N)(CCCCN)C(=O)O; Orn = NCCC[C@H](N)C(=O)O; Dab = NCC[C@H](N)C(=O)O; Dap = NC[C@H](N)C(=O)O; Aib = CC(C)(N)C(=O)O

B1: SEQ ID NO: 172 (peptide)
peptide: cyclo([Bip(4'-COOH)][Ala(1-bicyclo(1.1.1)pentyl)][Phe(4-COOH)]G[Pro(cis-4-F)][Trp(βS-Me,4-F)][Aib]SW[d(αMeS)][Ala(piperidin-4-yl)]Q[Dab]G[dPro(4R-Bzl(4-F))])
modifications: ring closure inferred; not fully specified (bridges); printed as Bip4CO2H-AlaPent-Phe4COOH-G-Proc4F-SbMeW4F-Aib-S-W-daMeS-AlaPip4-Q-Dab-G-dProc4Bn4F, cyclic (macrolactam)
B2: SEQ ID NO: 149 (peptide)
peptide: cyclo([Bip(4'-COOH)][4Pal][Phe(4-COOH)]G[Pro(cis-4-F)][1Nal(3S-Me)][Aib]EW[Aib][Ala(pyrimidin-5-yl)]Q[Dab]G[dPro(4R-Bzl(4-F))])
modifications: ring closure inferred; not fully specified (bridges); printed as Bip4CO2H-4Pal-Phe4COOH-G-Proc4F-sbMe1Nal-Aib-E-W-Aib-PyrimAla-Q-Dab-G-dProc4Bn4F, cyclic (macrolactam)
B3: SEQ ID NO: 148 (peptide)
peptide: cyclo([Bip(4'-COOH)][4Pal][Phe(4-COOH)]G[Pro(cis-4-F)][Trp(4-Cl)(βS-Me)][Aib]EW[Aib][Ala(pyrimidin-5-yl)]Q[Dab]G[dPro(4R-Bzl(4-F))])
modifications: ring closure inferred; not fully specified (bridges); printed as Bip4CO2H-4Pal-Phe4COOH-G-Proc4F-sbMeW4Cl-Aib-E-W-Aib-PyrimAla-Q-Dab-G-dProc4Bn4F, cyclic (macrolactam)

Target: Recombinant human IL-1β (BioLegend 579404) (human, UniProt P01584 117-269)
Assay: cell-based or functional assay

| Binder | MRC5 IC50 |
| --- | --- |
| cyclo([Bip(4'-COOH)][Ala(1-bicyclo(1.1.1)pentyl)][Phe(4-COOH)]G[Pro(cis-4-F)][Trp(βS-Me,4-F)][Aib]SW[Aib][Ala(piperazin-1-yl)]Q[Dab]G[dPro(4R-Bzl(4-F))]) (ring closure inferred) [SEQ ID NO: 168] | 0.018 nM |
| cyclo([Bip(4'-COOH)][Ala(1-bicyclo(1.1.1)pentyl)][Phe(4-COOH)]G[Pro(cis-4-F)][Trp(βS-Me,4-F)][Aib]EW[αMeK][Ala(piperidin-4-yl)]Q[Dab]G[dPro(4R-Bzl(4-F))]) (ring closure inferred) [SEQ ID NO: 166] | 0.039 nM |
| B1 | 0.016 nM |
| cyclo([Bip(4'-COOH)][Ala(1-bicyclo(1.1.1)pentyl)][Phe(4-COOH)]G[Pro(cis-4-F)][Trp(βS-Me,4-F)][Aib]SW[Aib][Ala(piperidin-4-yl)]Q[Dab]G[dPro(4R-Bzl(4-F))]) (ring closure inferred) [SEQ ID NO: 169] | 0.019 nM |
| cyclo([Bip(4'-COOH)][4Pal][Phe(4-COOH)]G[Pro(cis-4-F)][Trp(βS-Me,4-F)][Aib]SW[d(αMeD)][Ala(pyrimidin-5-yl)]QSG[dPro(4R-(4-pyridylmethyl))]) (ring closure inferred) [SEQ ID NO: 156] | 0.015 nM |
| cyclo([Bip(4'-COOH)][4Pal][Phe(4-COOH)]G[Pro(cis-4-F)][Trp(βS-Me,4-F)][Aib]EW[Aib][Ala(pyrimidin-5-yl)]Q[Dap]G[dPro(3S-(4-Br-benzyl))]) (ring closure inferred) [SEQ ID NO: 150] | 0.019 nM |
| cyclo([Bip(4'-COOH)][4Pal][Phe(4-COOH)]G[cisHyp][Trp(βS-Me,4-F)][Aib]SW[d(αMeD)][Ala(pyrimidin-5-yl)]QSG[dPro(4R-(4-pyridylmethyl))]) (ring closure inferred) [SEQ ID NO: 161] | 0.019 nM |
| cyclo([Bip(4'-COOH)][Ala(1-bicyclo(1.1.1)pentyl)][Phe(4-COOH)]G[Pro(cis-4-F)][Trp(βS-Me,4-F)][Aib]SW[Aib][Ala(morpholin-4-yl)]Q[Dab]G[dPro(4R-Bzl(4-F))]) (ring closure inferred) [SEQ ID NO: 167] | 0.013 nM |
| cyclo([Bip(4'-COOH)][4Pal][Phe(4-COOH)]G[Pro(cis-4-F)][Trp(βS-Me,4-F)][Aib]SW[d(αMeD)][Ala(pyrimidin-5-yl)]Q[Dab]G[dPro(4R-(4-pyridylmethyl))]) (ring closure inferred) [SEQ ID NO: 154] | 0.011 nM |
| cyclo([Bip(4'-COOH)][Ala(1-bicyclo(1.1.1)pentyl)][Phe(4-COOH)]G[cisHyp][Trp(βS-Me,4-F)][Aib]SW[d(αMeD)][Ala(pyrimidin-5-yl)]Q[Dab]G[dPro(4R-(4-pyridylmethyl))]) (ring closure inferred) [SEQ ID NO: 160] | 0.023 nM |
| B2 | 0.024 nM |
| cyclo([Bip(4'-COOH)][Cba][Phe(4-COOH)]G[cisHyp][Trp(βS-Me,4-F)][Aib]SW[d(αMeD)][Ala(pyrimidin-5-yl)]Q[Dab]G[dPro(4R-(4-pyridylmethyl))]) (ring closure inferred) [SEQ ID NO: 164] | 0.039 nM |
| cyclo([Bip(4'-COOH)][4Pal][Phe(4-COOH)]G[Pro(cis-4-F)][1Nal(3S-Me)][Aib]EW[Aib][Ala(pyrimidin-5-yl)]Q[Dab]G[dPro(3S-(4-Br-benzyl))]) (ring closure inferred) [SEQ ID NO: 153] | 0.019 nM |
| cyclo([Bip(4'-COOH)][Ala(1-bicyclo(1.1.1)pentyl)][Phe(4-COOH)]G[Pro(cis-4-F)][Trp(βS-Me,4-F)][Aib]SW[d(αMeD)][Ala(pyrimidin-5-yl)]QSG[dPro(4R-(4-pyridylmethyl))]) (ring closure inferred) [SEQ ID NO: 158] | 0.013 nM |
| cyclo([Bip(4'-COOH)][Cba][Phe(4-COOH)]G[Pro(cis-4-F)][Trp(βS-Me,4-F)][Aib]SW[Aib][Ala(pyrimidin-5-yl)]Q[Dab]G[dPro(4R-(4-pyridylmethyl))]) (ring closure inferred) [SEQ ID NO: 163] | 0.03 nM |
| cyclo([Bip(4'-COOH)][Ala(1-bicyclo(1.1.1)pentyl)][Phe(4-COOH)]G[Pro(cis-4-F)][Trp(βS-Me,4-F)][Aib]EW[αMeK][Ala(morpholin-4-yl)]Q[Dab]G[dPro(4R-Bzl(4-F))]) (ring closure inferred) [SEQ ID NO: 165] | 0.022 nM |
| cyclo([Bip(4'-COOH)][Ala(1-bicyclo(1.1.1)pentyl)][Phe(4-COOH)]G[Pro(cis-4-F)][Trp(βS-Me,4-F)][Aib]SW[d(αMeS)][Ala(piperazin-1-yl)]Q[Dab]G[dPro(4R-Bzl(4-F))]) (ring closure inferred) [SEQ ID NO: 171] | 0.016 nM |
| cyclo([Bip(4'-COOH)][4Pal][Phe(4-COOH)]G[Pro(cis-4-F)][Trp(βS-Me,4-F)][Aib]S[Trp4Az][Aib][Ala(pyrimidin-5-yl)]Q[Dab]G[dPro(4R-(4-pyridylmethyl))]) (ring closure inferred) [SEQ ID NO: 162] | 0.05 nM |
| B3 | 0.032 nM |
| cyclo([Bip(4'-COOH)][4Pal][Phe(4-COOH)]G[cisHyp][Trp(βS-Me,4-F)][Aib]SW[d(αMeD)][Ala(pyrimidin-5-yl)]Q[Dab]G[dPro(4R-(4-pyridylmethyl))]) (ring closure inferred) [SEQ ID NO: 159] | 0.013 nM |
| cyclo([Bip(4'-COOH)][Ala(1-bicyclo(1.1.1)pentyl)][Phe(4-COOH)]G[Pro(cis-4-F)][Trp(βS-Me,4-F)][Aib]SW[d(αMeS)][Ala(morpholin-4-yl)]Q[Dab]G[dPro(4R-Bzl(4-F))]) (ring closure inferred) [SEQ ID NO: 170] | 0.015 nM |
| cyclo([Bip(4'-COOH)][4Pal][Phe(4-COOH)]G[Pro(cis-4-F)][Trp(βS-Me,4-F)][Aib]EW[Aib][Ala(pyrimidin-5-yl)]Q[Orn]G[dPro(3S-(4-Br-benzyl))]) (ring closure inferred) [SEQ ID NO: 151] | 0.022 nM |
| cyclo([Bip(4'-COOH)][4Pal][Phe(4-COOH)]G[Pro(cis-4-F)][Trp(βS-Me,4-F)][Aib]EW[Aib][Ala(pyrimidin-5-yl)]QKG[dPro(3S-(4-Br-benzyl))]) (ring closure inferred) [SEQ ID NO: 152] | 0.031 nM |
| cyclo([Bip(4'-COOH)][Ala(1-bicyclo(1.1.1)pentyl)][Phe(4-COOH)]G[Pro(cis-4-F)][Trp(βS-Me,4-F)][Aib]SW[d(αMeD)][Ala(pyrimidin-5-yl)]Q[Dab]G[dPro(4R-(4-pyridylmethyl))]) (ring closure inferred) [SEQ ID NO: 155] | 0.011 nM |
| cyclo([Bip(4'-COOH)][Ala(1-bicyclo(1.1.1)pentyl)][Phe(4-COOH)]G[cisHyp][Trp(βS-Me,4-F)][Aib]SW[d(αMeD)][Ala(pyrimidin-5-yl)]QSG[dPro(4R-(4-pyridylmethyl))]) (ring closure inferred) [SEQ ID NO: 157] | 0.038 nM |
